Results reported in patent US9988424 (DUKE UNIVERSITY, dated 2018).
Where two headings read alike, the source gives them in different places.

Legend:
AE.con gp140CF [1] = experiment: ELISA, OD405 at 10 ug/ml
G.con gp140CF [2] = experiment: ELISA, OD405 at 10 ug/ml
B.040 gp140C = experiment: ELISA, OD405 at 10 ug/ml
C.1086 gp140 [3] = molecular target: T1, C.1086 gp140; experiment: ELISA, OD405 at 10 ug/ml
T1 construct: also called C.1086gp140C

Con 6 gp120 [4] = experiment: ELISA, OD405 at 10 ug/ml
B.63521_V1/V2 tags [5] = experiment: ELISA, OD405 at 10 ug/ml
A.9004SS V1/V2 tags [6] = molecular target: T2, A.9004SS V1/V2 tags; experiment: ELISA, OD405 at 10 ug/ml
T2 V1V2 tags construct: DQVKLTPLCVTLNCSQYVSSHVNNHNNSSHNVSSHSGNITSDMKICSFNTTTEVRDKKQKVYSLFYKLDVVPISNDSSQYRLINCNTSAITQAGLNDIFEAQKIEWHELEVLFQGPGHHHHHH

B.62357 gp140C [7] = molecular target: T3, B.62357 gp140C; experiment: ELISA, OD405 at 10 ug/ml
T3 construct: also called B.62357 140C

D.9009SA V1/V2 tags = experiment: ELISA, OD405 at 10 ug/ml
AE.A244 V1V2 Tags = AE.A244 V1V2 Tags (HIV-1); experiment: SPR, mAb captured on anti-Fc, V1/V2 tags injected
AE.con gp140CF [8] = experiment: ELISA, OD405 at 10 ug/ml; remark: listed apart in the source
G.con gp140CF [9] = experiment: ELISA, OD405 at 10 ug/ml; remark: listed apart in the source
C.1086 gp140 [10] = molecular target: T1, C.1086 gp140; experiment: ELISA, OD405 at 10 ug/ml; remark: listed apart in the source
B.HXB/BAL gp140CFI = molecular target: T4, B.HXB/BAL gp140CFI (HIV-1, UniProt P04578 33-680); experiment: ELISA, OD405 at 10 ug/ml
T4 construct: also called B.HxB/Ba gp140 CFI

B.9021 gp140C = B.9021 gp140C (HIV-1); experiment: ELISA, OD405 at 10 ug/ml
Con 6 gp120 [11] = experiment: ELISA, OD405 at 10 ug/ml; remark: listed apart in the source
AE.97CNG2XF gp140CF = molecular target: T5, AE.97CNG2XF gp140CF (HIV-1); experiment: ELISA, OD405 at 10 ug/ml
T5 construct: also called E.97CNGX2F gp140CF

B.63521_V1/V2 tags [12] = experiment: ELISA, OD405 at 10 ug/ml; remark: listed apart in the source
A.9004SS V1/V2 tags [13] = molecular target: T2, A.9004SS V1/V2 tags; experiment: ELISA, OD405 at 10 ug/ml
C.1086 gp120 = C.1086 gp120 (HIV-1); experiment: ELISA, OD405 at 10 ug/ml
B.Case A2 V1/V2 tags = experiment: ELISA, OD405 at 10 ug/ml
B.62357 gp140C [14] = molecular target: T3, B.62357 gp140C; experiment: ELISA, OD405 at 10 ug/ml; remark: listed apart in the source
SIV CPZ US-1 gp140CF = molecular target: T6, SIV CPZ US-1 gp140CF (SIVcpz); experiment: ELISA, OD405 at 10 ug/ml
T6 construct: also called US-1 SIVCPZ gp140CF
T6 chain: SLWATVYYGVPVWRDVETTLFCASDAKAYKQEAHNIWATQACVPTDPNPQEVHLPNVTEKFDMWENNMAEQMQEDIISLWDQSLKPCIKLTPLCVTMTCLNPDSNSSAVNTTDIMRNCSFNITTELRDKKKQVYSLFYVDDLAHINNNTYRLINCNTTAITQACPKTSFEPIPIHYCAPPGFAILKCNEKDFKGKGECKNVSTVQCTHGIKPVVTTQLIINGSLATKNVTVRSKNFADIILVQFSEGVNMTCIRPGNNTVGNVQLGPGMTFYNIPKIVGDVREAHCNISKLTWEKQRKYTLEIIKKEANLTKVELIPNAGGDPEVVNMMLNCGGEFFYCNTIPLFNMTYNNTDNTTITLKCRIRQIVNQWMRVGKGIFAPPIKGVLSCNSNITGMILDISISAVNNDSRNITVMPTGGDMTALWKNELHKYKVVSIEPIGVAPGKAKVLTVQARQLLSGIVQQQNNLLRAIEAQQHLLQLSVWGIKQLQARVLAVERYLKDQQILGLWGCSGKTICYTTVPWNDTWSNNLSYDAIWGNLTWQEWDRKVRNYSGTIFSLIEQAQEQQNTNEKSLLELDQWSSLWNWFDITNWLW

gp70 C.1086 V1/V2 = molecular target: T7, gp70 C.1086 V1/V2 (HIV-1 V1V2 on murine leukemia virus gp70); experiment: ELISA, OD405 at 10 ug/ml
T7 construct: also called C.gp70 1086C V1V2; C.1086gp70V1V2
T7 chain: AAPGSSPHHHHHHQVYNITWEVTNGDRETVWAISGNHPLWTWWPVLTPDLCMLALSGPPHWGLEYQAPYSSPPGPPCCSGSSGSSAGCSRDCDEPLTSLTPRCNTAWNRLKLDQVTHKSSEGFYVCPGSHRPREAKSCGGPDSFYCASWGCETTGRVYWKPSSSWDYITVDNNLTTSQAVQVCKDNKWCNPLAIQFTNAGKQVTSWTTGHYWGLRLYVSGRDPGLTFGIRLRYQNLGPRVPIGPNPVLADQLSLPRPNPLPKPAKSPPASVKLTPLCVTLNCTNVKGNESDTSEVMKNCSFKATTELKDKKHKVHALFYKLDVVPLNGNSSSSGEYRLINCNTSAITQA

B1: CH59 (antibody, V domains shown)
VH: EVQLVESGGGLVQPGRSLRLSCAASGFTFDDGAMHWVRQAPGKGLEWVSGISWNSNIIAYADSVKGRFTISRDNAKNSLYLEMNSLRVEDTALYYCAKDSPRGELPLNYWGQGTLVTVSS
VL: SYELTQPPSVSVSPGQTARITCSGDALPKNYAYWYQQKSGQAPVLVIYEDSKRPSGIPERFSGSSSGTMATLTISGAQVEDEADYYCYSTDSSGNHRVFGGGTKLTVL
notes: also called mAb CH59
B1: binds (AE.con gp140CF [1]); no binding (tested: 10 ug/ml) (G.con gp140CF [2]); no binding (tested: 10 ug/ml) (B.040 gp140C). B1: binds (C.1086 gp140 [3]); no binding (tested: 10 ug/ml) (Con 6 gp120 [4]); no binding (tested: 10 ug/ml) (B.63521_V1/V2 tags [5]). B1: binds (A.9004SS V1/V2 tags [6]); no binding (tested: 10 ug/ml) (B.62357 gp140C [7]); binds (D.9009SA V1/V2 tags). The Kd (AE.A244 V1V2 Tags) was 1 nM.

B2: 697D reverted unmutated ancestor antibody (antibody, V domains shown)
VH: QVQLVQSGAEVKKPGSSVKVSCKASGGTFSSYTISWVRQAPGQGLEWMGRIIPILGIANYAQKFQGRVTITADKSTSTAYMELSSLRSEDTAVYYCATSGVGLHFGYFDYWGQGTLVTVSS
VL: QSVLTQPPSVSGAPGQRVTISCTGSSSNIGAGYDVHWYQQLPGTAPKLLIYGNSNRPSGVPDRFSGSKSGTSASLAITGLQAEDEADYYCQSYDSSLSGYVFGTGTKVTVL
notes: also called 697D RUA
B2: no binding (tested: 10 ug/ml) (AE.con gp140CF [8]); no binding (tested: 10 ug/ml) (G.con gp140CF [9]); no binding (tested: 10 ug/ml) (C.1086 gp140 [10]). B2: no binding (tested: 10 ug/ml) (B.HXB/BAL gp140CFI); no binding (tested: 10 ug/ml) (B.9021 gp140C); no binding (tested: 10 ug/ml) (Con 6 gp120 [11]). B2: no binding (tested: 10 ug/ml) (AE.97CNG2XF gp140CF); no binding (tested: 10 ug/ml) (B.63521_V1/V2 tags [12]); no binding (tested: 10 ug/ml) (A.9004SS V1/V2 tags [13]). B2: no binding (tested: 10 ug/ml) (C.1086 gp120); no binding (tested: 10 ug/ml) (B.Case A2 V1/V2 tags); no binding (tested: 10 ug/ml) (B.62357 gp140C [14]). B2: no binding (tested: 10 ug/ml) (SIV CPZ US-1 gp140CF); no binding (tested: 10 ug/ml) (gp70 C.1086 V1/V2).
